Laboratory results from publication PMC2188260.
Read-outs that look alike come from different tables or passages of the source.

Experiments:
Experiment in all cases: co-IP
[1] = target: human plasma gelsolin (human) (UniProt P06396)
[2] = target: gelsolin of rabbit lung macrophages (rabbit (endogenous in lung macrophages))
[3] = target: gelsolin of rabbit lung macrophages (rabbit (endogenous in lung macrophages)); remark: listed apart in the source
[4] = target: gelsolin of rabbit lung macrophages (rabbit (endogenous in lung macrophages)); remark: listed apart in the source

Sequence of human plasma gelsolin (human) (P06396 28-782): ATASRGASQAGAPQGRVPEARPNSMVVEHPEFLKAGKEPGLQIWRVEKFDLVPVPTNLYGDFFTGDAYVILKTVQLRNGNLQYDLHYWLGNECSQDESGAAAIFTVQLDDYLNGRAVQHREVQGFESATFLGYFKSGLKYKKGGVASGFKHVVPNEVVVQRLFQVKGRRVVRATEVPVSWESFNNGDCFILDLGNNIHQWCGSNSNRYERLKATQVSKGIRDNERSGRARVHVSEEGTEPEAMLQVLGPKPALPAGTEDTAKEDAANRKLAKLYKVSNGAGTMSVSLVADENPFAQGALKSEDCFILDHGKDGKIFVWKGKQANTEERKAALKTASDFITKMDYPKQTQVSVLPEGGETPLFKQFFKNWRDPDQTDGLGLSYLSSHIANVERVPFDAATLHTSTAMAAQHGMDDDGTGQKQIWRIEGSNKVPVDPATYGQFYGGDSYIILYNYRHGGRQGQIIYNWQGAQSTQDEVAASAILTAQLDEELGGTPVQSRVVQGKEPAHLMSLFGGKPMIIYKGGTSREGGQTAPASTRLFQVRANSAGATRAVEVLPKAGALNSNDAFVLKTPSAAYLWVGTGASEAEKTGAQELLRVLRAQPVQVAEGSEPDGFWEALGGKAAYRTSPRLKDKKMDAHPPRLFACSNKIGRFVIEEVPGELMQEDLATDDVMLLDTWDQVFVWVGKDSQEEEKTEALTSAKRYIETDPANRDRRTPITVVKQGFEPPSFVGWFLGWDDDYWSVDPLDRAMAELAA

rabbit skeletal muscle actin (from UniProt P68135 1-377) (natural protein)
stoichiometry N (actin per gelsolin) [1]: 1

actin of rabbit lung macrophages (from UniProt P29751 1-375) (natural protein)
molar ratio of actin to gelsolin on the beads (actin per gelsolin) [2]: 0.5 | percent of gelsolin complexed with actin [2]: 50% | percent of gelsolin in the EGTA-resistant complex (cells in suspension, 0 min) [2]: 20% | percent of gelsolin in the EGTA-resistant complex (cells in suspension, 30 min) [2]: 90% | percent of total gelsolin complexed to actin (1 uM ionomycin, 30 s) [2]: 80% | percent of total gelsolin complexed to actin (before ionomycin) [2]: 50% | percentage of gelsolin in an EGTA-resistant complex (DMSO, experiment 1) [2]: 32% | percentage of gelsolin in an EGTA-resistant complex (DMSO, experiment 2) [2]: 34% | percentage of gelsolin in an EGTA-resistant complex (DMSO, experiment 3) [2]: 51% | percentage of gelsolin in an EGTA-resistant complex (DMSO, experiment 4) [2]: 35% | percentage of gelsolin in an EGTA-resistant complex (DMSO, mean value) [2]: 38% | percentage of gelsolin in an EGTA-resistant complex (FMLP, experiment 1) [2]: 23% | percentage of gelsolin in an EGTA-resistant complex (FMLP, experiment 2) [2]: 24% | percentage of gelsolin in an EGTA-resistant complex (FMLP, experiment 3) [2]: 25% | percentage of gelsolin in an EGTA-resistant complex (FMLP, experiment 4) [2]: 26% | percentage of gelsolin in an EGTA-resistant complex (FMLP, mean value) [2]: 25% | percentage of gelsolin in an EGTA-resistant complex (no addition, experiment 1) [2]: 43% | percentage of gelsolin in an EGTA-resistant complex (no addition, experiment 2) [2]: 40% | percentage of gelsolin in an EGTA-resistant complex (no addition, experiment 3) [2]: 51% | percentage of gelsolin in an EGTA-resistant complex (no addition, experiment 4) [2]: 47% | percentage of gelsolin in an EGTA-resistant complex (no addition, mean value) [2]: 45% | molar ratio of actin to gelsolin on the beads (actin per gelsolin) [3]: 1 | percent of gelsolin complexed with actin [3]: 100% | molar ratio of actin to gelsolin on the beads (actin per gelsolin) [4]: 4
